Experimental data: patent US20200140562A1 (Innovent, published 2020)

T1: human OX40 on cells (CHO-hOX40, 293HEK-hOX40, Jurkat-hOX40, activated primary CD4+ T cells) (human, UniProt P43489 29-277)
T1 construct: whole, on cells; The cell type is told in each assay; also called CHO-OX40
T1 sequence (looked up): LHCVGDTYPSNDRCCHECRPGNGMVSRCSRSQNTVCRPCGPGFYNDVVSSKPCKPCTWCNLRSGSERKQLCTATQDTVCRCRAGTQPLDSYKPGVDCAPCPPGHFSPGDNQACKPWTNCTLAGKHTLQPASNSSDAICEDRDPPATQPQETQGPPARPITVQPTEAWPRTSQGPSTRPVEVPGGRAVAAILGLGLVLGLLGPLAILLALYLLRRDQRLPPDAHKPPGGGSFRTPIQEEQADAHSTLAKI

T2: mouse OX40Fc (Acro Biosystems) (mouse, UniProt P47741 20-211, limits assumed)
T2 construct: Bought; not shown: Fc
T2 sequence (looked up): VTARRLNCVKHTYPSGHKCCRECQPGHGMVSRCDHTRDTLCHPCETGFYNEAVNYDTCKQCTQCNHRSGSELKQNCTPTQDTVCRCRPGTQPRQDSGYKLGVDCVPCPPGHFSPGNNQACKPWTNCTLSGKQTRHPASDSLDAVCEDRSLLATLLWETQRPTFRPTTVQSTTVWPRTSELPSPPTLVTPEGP


Legend:
[1] = target: T1, human OX40 on cells (CHO-hOX40, …); experiment: flow cytometry, CHO-hOX40, 100 nM
[2] = target: T3, human OX40_Fc (R&D Systems) (human, UniProt P43489 29-216); experiment: BLI, IgG1 on tip, hOX40-Fc 50 nM, avid
T3 construct: Bought

[3] = target: T4, cyno OX40_Fc (Acro Biosystems) (cyno); experiment: BLI, IgG1 on tip, cyno OX40-Fc 100 nM, avid
T4 construct: Bought
Experimental: Sensors with loaded antibodies were exposed to 100 nM OX40 antigens for 5 min, afterwards they were transferred to assay buffer for dissociation of 5 min for off-rate measurement. Kinetics was analysed using the 1:1 binding model.

[4] = target: T2, mouse OX40Fc (Acro Biosystems); experiment: BLI, IgG1 on tip, mouse OX40-Fc in solution
[5] = target: T1, human OX40 on cells (CHO-hOX40, …); experiment: flow cytometry, MFI on CHO-hOX40 over wild-type CHO
[6] = target: T1, human OX40 on cells (CHO-hOX40, …); experiment: cell-based or functional assay

| Binder | CHO-OX40 binding intensity (MFI) [1] [MFI] | Kd [2] [nM] | Kd [3] [nM] | binding result [4] | Fold difference [5] [fold] | EC50, NFkB-luciferase reporter in Jurkat-hOX40 mixed with Raji cells [6] [nM] | EC50, NFkB-luciferase reporter in Jurkat-hOX40 [6] [nM] |
| --- | --- | --- | --- | --- | --- | --- | --- |
| ADI-25651, IgG1 format (antibody, V domains shown, Made in yeast) VH: QVQLVESGGGVVQPGRSLRLSCAASGFTFSSRNMHWVRQAPGKGLEWVAVIAYDGSLKYYADSVKGRFTISRDNSKNTLYLQMNSLRAEDTAVYYCARGRPWYSETGTSAFDIWGQGTMVTVSS VL: DIQMTQSPSSLSASVGDRVTITCQASQDISNYLNWYQQKPGKAPKLLIYDASNLETGVPSRFSGSGSGTDFTFTISSLQPEDIATYYCQQSDHYPTFGGGTKVEIKR | 253000 | 0.268 | 1.37 | no binding (tested: 100 nM) | 2340 |  |  |
| ADI-25654, IgG1 format (antibody, V domains shown, Made in yeast or CHO cells; also called ADI-25654-g1) VH: QVQLVESGGGVVQPGRSLRLSCAASGFTFRSYDMHWVRQAPGKGLEWVAYIAYDGSNKYYADSVKGRFTISRDNSKNTLYLQMNSLRAEDTAVYYCARGRPWYSETGTSAFDIWGQGTMVTVSS VL: DIQMTQSPSSLSASVGDRVTITCQASQDISNYLNWYQQKPGKAPKLLIYDASNLETGVPSRFSGSGSGTDFTFTISSLQPEDIATYYCQQSDHYPTFGGGTKVEIKR | 252000 | 0.283 | 1.53 | no binding (tested: 100 nM) | 2260 | 0.0282 |  |
| ADI-23515, IgG2 format (antibody) heavy: QVQLQESGPGLVKPSQTLSLTCTVSGGSIRSGAYYWSWIRQHPGKGLEWIGYIYYDGQTYYNPSLKSRVTISVDTSKNQFSLKLSSVTAADTAVYYCARDVGYPHYYGMDVWGQGTTVTVSSASTKGPSVFPLAPCSRSTSESTAALGCLVKDYFPEPVTVSWNSGALTSGVHTFPAVLQSSGLYSLSSVVTVPSSNFGTQTYTCNVDHKPSNTKVDKTVERKCCVECPPCPAPPVAGPSVFLFPPKPKDTLMISRTPEVTCVVVDVSHEDPEVQFNWYVDGVEVHNAKTKPREEQFNSTFRVVSVLTVVHQDWLNGKEYKCKVSNKGLPAPIEKTISKTKGQPREPQVYTLPPSREEMTKNQVSLTCLVKGFYPSDIAVEWESNGQPENNYKTTPPMLDSDGSFFLYSKLTVDKSRWQQGNVFSCSVMHEALHNHYTQKSLSLSPG light: EIVLTQSPGTLSLSPGERATLSCRASQSVSSSYLAWYQQKPGQAPRLLIYGASSRATGIPDRFSGSGSGTDFTLTISRLEPEDFAVYYCQQSERSPFTFGGGTKVEIKRTVAAPSVFIFPPSDEQLKSGTASVVCLLNNFYPREAKVQWKVDNALQSGNSQESVTEQDSKDSTYSLSSTLTLSKADYEKHKVYACEVTHQGLSSPVTKSFNRGEC |  |  |  |  |  |  | 0.39 |

Results, then the binder that gave them:

| CHO-OX40 binding intensity (MFI) [1] [MFI] | Kd [2] [nM] | Kd [3] [nM] | binding result [4] | Fold difference [5] [fold] | EC50, NFkB-luciferase reporter in Jurkat-hOX40 mixed with Raji cells [6] [nM] | EC50, NFkB-luciferase reporter in Jurkat-hOX40 [6] [nM] | Binder |
| --- | --- | --- | --- | --- | --- | --- | --- |
| 252000 | 0.23 | 1.6 | no binding (tested: 100 nM) | 2040 |  |  | ADI-25650, IgG1 format (antibody, V domains shown, Made in yeast) VH: QVQLVESGGGVVQPGRSLRLSCAASGFTFSVYNMHWVRQAPGKGLEWVAVIAYDGSAKYYADSVKGRFTISRDNSKNTLYLQMNSLRAEDTAVYYCARGRPWYSETGTSAFDIWGQGTMVTVSS VL: DIQMTQSPSSLSASVGDRVTITCQASQDISNYLNWYQQKPGKAPKLLIYDASNLETGVPSRFSGSGSGTDFTFTISSLQPEDIATYYCQQSDHYPTFGGGTKVEIKR |
| 252000 | 0.223 | 1.15 | no binding (tested: 100 nM) | 2320 |  |  | ADI-25653, IgG1 format (antibody, V domains shown, Made in yeast) VH: QVQLVESGGGVVQPGRSLRLSCAASGFTFVSYNMHWVRQAPGKGLEWVAVIMYDGSAKYYADSVKGRFTISRDNSKNTLYLQMNSLRAEDTAVYYCARGRPWYSETGTSAFDIWGQGTMVTVSS VL: DIQMTQSPSSLSASVGDRVTITCQASQDISNYLNWYQQKPGKAPKLLIYDASNLETGVPSRFSGSGSGTDFTFTISSLQPEDIATYYCQQSDHYPTFGGGTKVEIKR |
